The target in series [1] is T1, Hrp48-RRM1 (Drosophila melanogaster, UniProt P48809 1-88).
T1 sequence: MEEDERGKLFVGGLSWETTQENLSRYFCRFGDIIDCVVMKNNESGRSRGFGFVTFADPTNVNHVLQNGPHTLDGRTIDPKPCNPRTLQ
In words: ITC. For orientation: Isothermal titration calorimetry measures the heat released or taken up as one component is titrated into another.

The target in series [2] is T2, Hrp48-RRM12 (Drosophila melanogaster, UniProt P48809 1-173).
T2 sequence: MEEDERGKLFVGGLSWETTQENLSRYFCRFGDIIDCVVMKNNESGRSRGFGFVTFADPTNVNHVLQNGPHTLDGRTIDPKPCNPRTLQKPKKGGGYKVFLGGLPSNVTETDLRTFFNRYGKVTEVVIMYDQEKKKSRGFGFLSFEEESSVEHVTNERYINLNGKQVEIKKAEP
The series is described as follows: EMSA. (In general: Mobility shift assays separate free from complexed probe on a gel.)

In series [3] the target is T2, Hrp48-RRM12. The series is described as follows: ITC.
Series [4] deals with the molecule itself. The series is described as follows: SEC-MALS.
In series [5] the target is T2, Hrp48-RRM12. The series is described as follows: NMR.
For series [6], the target named is T3, Hrp48-RRM2 (Drosophila melanogaster, UniProt P48809 89-173).
T3 sequence: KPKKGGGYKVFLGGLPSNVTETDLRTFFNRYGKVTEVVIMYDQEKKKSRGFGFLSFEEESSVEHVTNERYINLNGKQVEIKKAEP
In words: NMR.

Series [7] concerns the target T1, Hrp48-RRM1. The series is described as follows: NMR.
In series [8] the target is T2, Hrp48-RRM12. The series is described as follows: ITC. This is another data set of the same source.
Series [9] has as its target T4, Hrp48-RRM12;Sxl-dRBD3;Unr-CSD12 (Drosophila melanogaster;Drosophila …, UniProt P48809;P19339;B7Z0E2 1-173;123-294;186-337, ||).
T4 sequence 1: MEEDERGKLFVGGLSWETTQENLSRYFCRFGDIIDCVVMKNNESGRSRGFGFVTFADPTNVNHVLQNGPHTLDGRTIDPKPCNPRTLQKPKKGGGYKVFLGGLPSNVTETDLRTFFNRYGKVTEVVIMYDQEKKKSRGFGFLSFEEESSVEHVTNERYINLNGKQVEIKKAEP
T4 sequence 2: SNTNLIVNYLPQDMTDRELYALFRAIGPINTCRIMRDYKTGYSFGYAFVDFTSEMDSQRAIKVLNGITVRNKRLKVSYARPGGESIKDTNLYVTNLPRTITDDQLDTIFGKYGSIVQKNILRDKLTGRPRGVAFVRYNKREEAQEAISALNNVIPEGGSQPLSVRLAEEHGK
T4 sequence 3: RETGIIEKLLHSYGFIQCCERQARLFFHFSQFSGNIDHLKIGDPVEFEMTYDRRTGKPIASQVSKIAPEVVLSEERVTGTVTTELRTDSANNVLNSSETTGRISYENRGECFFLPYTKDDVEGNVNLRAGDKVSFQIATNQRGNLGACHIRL
In words: SEC-MALS. A general note: SEC sorts molecules by how far they enter the pores of the column.

The target in series [10] is T5, Sxl-dRBD3;Unr-CSD12 (Drosophila melanogaster;Drosophila …, UniProt P19339;B7Z0E2 123-294;186-337, |).
T5 sequence 1: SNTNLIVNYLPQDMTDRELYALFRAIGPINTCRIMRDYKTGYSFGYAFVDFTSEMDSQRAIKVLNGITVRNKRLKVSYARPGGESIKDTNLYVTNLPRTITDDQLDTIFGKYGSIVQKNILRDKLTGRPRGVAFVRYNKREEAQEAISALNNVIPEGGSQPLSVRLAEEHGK
T5 sequence 2: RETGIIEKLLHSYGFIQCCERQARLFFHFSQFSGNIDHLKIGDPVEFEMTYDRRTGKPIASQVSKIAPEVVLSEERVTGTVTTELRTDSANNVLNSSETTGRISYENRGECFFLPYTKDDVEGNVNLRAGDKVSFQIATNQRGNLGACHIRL
In words: SEC.

In series [11] the target is T3, Hrp48-RRM2. In words: NMR. The source holds these as a separate data set.
For series [12], the target named is T5, Sxl-dRBD3;Unr-CSD12. In words: SEC-MALS.
Series [13] addresses T4, Hrp48-RRM12;Sxl-dRBD3;Unr-CSD12. The series is described as follows: SEC-MALS. The source holds these as a separate data set.
Series [14] concerns the target T2, Hrp48-RRM12. In words: NMR. This is another data set of the same source.
Series [15] addresses T1, Hrp48-RRM1. In words: ITC. This is another data set of the same source.

Where two headings read alike, the source gives them in different places.

What is called Kd is the equilibrium constant for the complex coming apart. In [1], UAGGAU (ssRNA) [6-mer-2] yielded a Kd of 8700 nM. That is a single-digit micromolar value. Take UUUUUUUGAGCACGUGAAGGUAGGAUUAAG (ssRNA) [GG-30-mer-Cy5]: in series [2], the binding result is reported as “binds”. Molecule UAGGUUAAG (ssRNA) [9-mer (P-element site)] came in with a Kd in series [3] of 14.8 ± 3.7 nM.

B1: Hrp48-RRM2 (residues 89-173) (domain or fragment, Drosophila melanogaster, UniProt P48809 89-173, looked up)
chain: KPKKGGGYKVFLGGLPSNVTETDLRTFFNRYGKVTEVVIMYDQEKKKSRGFGFLSFEEESSVEHVTNERYINLNGKQVEIKKAEP
As a reminder, the stoichiometry N is a count of units in the complex or per binding partner. With B1, the “stoichiometry N” value in series [4] turned out to be 4. For the molecule UAGG (ssRNA) [4-mer-3], the binding result in series [5] is listed as “binds”. As to AUUAAG (ssRNA) [6-mer-3], the binding result in [6] and in [7] was “binds” throughout.

Regarding UUUUUUUGAGCACGUGAAGGUAGGAUUAAG (ssRNA) [GG-30-mer], the binding result in [8], in [9] and in series [10] was “binds” in each case.

AACCUA (ssRNA) [6-mer-1] gave a Kd in [1] of 1300 nM. Moreover, the binding result in series [11] was “no binding”.

UAGGAUUAAG (ssRNA) [10-mer-WT] had a Kd in series [3] of 17.3 ± 2.9 nM.

UUUUUUUGAGCACGUGAACCUAGGAUUAAG (ssRNA) [WT-30-mer]: the binding result in series [12] and in series [13] was “binds” in each case. Turning to UAAG (ssRNA) [4-mer-6], the binding result in series [14] is “binds”. With AAGAAC (ssRNA) [6-mer-4], the binding result in series [6] and in series [15] was “binds” throughout.

The record behind these values is publication doi:10.1101/2024.03.26.586676 (bioRxiv, 2024).
